The domain aggregation screens of Martell et al. (2025)

Experiment: soluble fraction after stress (log2 fold change); higher = more stays soluble; pooled small domains, quantitative proteomics
Conditions: stress: 75 degC
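Note: 20 min heating vs room temperature control held 20 min.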

| Sequence | soluble fraction (log2) |
| --- | --- |
| HMEFDTEFVLRQAMHAFMQYGYAKTSMQKLKEATHLHPGSIYAAYGNKKGLFLAATEQYQKDR | 0.288 |
| HMDQQTKFKTALAALAASAETKDRKLTKADVKEFLEDMDLGEEQMKLVYAYLASKHIHVEGAE | ≥ 1.04 |
| HMGEAIPVPDIRHKSQADAERLLQDQGLAMMVTDTGYVKTLPANYILEQIPVAGEKVKSGHVVYVIINSG | -0.103 |
| HMSEVTYQETLRLLRRAIDVLPQQSRQIILLGLSGKNNNEVAEMLGISVNTVKTLKKGAYKSLRNSL | -1.87 |
| HMEIGELITLYRKQAGLTIDELSEKANVPKGTLNKIIGGITKAPTLETMRSIAYALGKKLADFDN | -0.503 |
| HMLKEDSAYELGLRIFDQALNDYGTSFIDLKEDEYKKVLSIYGYSNPRQLIINIGLGNVIPHLLARDITE | -1.34 |
| HMPALPGNELLRNLMLEHGLKQVDLAEIGSQGVVSEILSGKRRINRRHADLLARRFSLPAELFSR | -0.217 |
| HMPSYYKELQNYSPENPVVKKRKVHPDVVNAIKYLAEITDGNPMLIKAYAQMILAHVFTTMPLIDKSV | -0.00519 |
| HMQAQQYYMLLMNKATSALKIEALGANSNKAHQSFGTKTAGGSAVYWGILFNSNGKIYKIVG | -3.06 |
| HMKRLPMRKIRDVLRLSADGLSTRKIGVSLTIGRTTVQAYLDRAAEVDLSWPLPPEMSDTDLERLIYPR | -3.14 |
| HMRKTIQDFLSSNKVDIAKLLTLALEKTKEDLYKNLSYNLTNKELEKLKLLIKKREQGIPFAYLS | -0.348 |
| HMRGAARRDRAVGERAVSKDTILDATRALLRKGSALEIRAIDIAEESGLSRQTVFQYYPVIRLIFFELSD | -0.00574 |
| HMEVAVQFIEFKIPENHAWIGKEIREITFPPESILVLIIRDGKKLVPNGKTVLKEGDSLILSGKASD | -1.43 |
| HMTQFSASSERAGAGGAYRTTLRAMEQNGDLLQISILLPDAVTAKHAATVWPERAQAIYTAILSELLK | -1.71 |
| HMTAKQDLDSIYRHLVATRKSIAENPKMVSSIDDPQALIKMLDYAIQYFYTDKRDEALAVLEKNEEQLNFR | -0.347 |
| HMSEPHPPFQVVAQFPYKSEYEDDLNFEKDQIITVTSIEDDEWYYGDFKNKGGELVEGIFPKSFVTVK | -0.31 |
| HMAKNDSGLNNHTFNTIRDALQKALTDGPQEAKKLTENLPFPADKIITVIRYLADHDEHFSLEDGIISLT | 0.609 |
| HMQPDYRVLYSNFSDKDGGAIVAALEKMNVPYKFSEGGSAILVPAGQVHQARLKLAADGLPK | 0.0648 |
| HMQPDFLDAKASLALLGVRPQTLYAYVSRGAIRSVPQPGTKAHLYSRSDIERVMARAAARAG | -1.34 |
| HMNYAVTAARRESILNAALEIFGKSGYNGSSVKQVALAVGMTEAGVLHHFGTKSNLLIEVLRV | 0.396 |
| HMKSERHALILSLIEKKNVETQEDLAELLKERGVAVTQATVSRDIKELRLIKVLSETGGYKYATVDKAE | -0.908 |
| HMREPIPVPSRPIRAGDLVEIPGTNRPAEVTAVKGDRLVLKAGVLSMTVKNDEVRLIEDDERAAM | 0.505 |
| HMGKKGPELNDNEKIIFNIISKENSMNLDDLKNRTELSNKQWDKAIKGLRSHELVNIEKIDDQLLIHL | 0.0386 |
| HMVEPDELTEREREVLQFVARGLSNKEIGAALALSPHTIKAHLRSILDKLHLRSRAEAAAWAVRSGLS | -0.344 |
| HMESGSSKINQDILETFTRGKKSLSISDISRLSGHHRHTVARYLDNLVSSGKLEMRQHGQKKKYYLSDIQP | -0.314 |
| HMQADKYKSYTATDFLKDKDFLRWQLFNGEEDMLFWGRVIEEYPALRSRVEEGIVLYKDNIR | -0.711 |
| HMDASKVKIEDLGLSTRTENALVAASIRTAGGLARKSEMDLLSTDGLGEKGITEIKKALSDLGLELK | 0.4 |
| HMTRHIQVNDSIASTPIEDVYFSTRTYNALLNNGISVIGDLSKYTHDDLYASFQGLGRAGVLEIEAYLRQD | -1.43 |

| Sequence | soluble fraction (log2) |
| --- | --- |
| HMINKDNLIEEILKFINTKIADISSNNPLFDIVAKPYISKVVTNNVSKLDKALSLIADDKGMVDADGLLT | -0.129 |
| HMDTRSSARKALDAVNLLLETYGAKAYQHSYEIAGRRQQFQTPGDFMAFRSRLMAEVATEENAARINA | -0.211 |
| HMKYGPSTVAVLTVVRESEMGAFLDAETGRTNDDILLHKTQQTEPVHIGDQVKVFLYLDPKHRLTASMRVP | -1.03 |
| HMINEEELLKIENIKRKYPDSKAALMPVLYFFQEKYGFISDDSIKEISQLLNISEVDIKGVVSFYEMFHEK | -1.32 |
| HMAAENAVGARVKALREAMDLSLRDLSERSGVSPTMLSQVERGSTSPTLAVAEKIAAGLDLSLSQLLRL | 0.137 |
| HMSMHVHTPNPDFKPSNTNALQEGQLVEHPKFGFGKVQKIETEGLNKKASIQFEHFGEKTLLLSFAKLRII | -1.47 |
| HMATTIEAPMPGKILDVKVNPGQAVSYGQVVLTMEAMKMETEIVAPADGTVASVLVKSGDMVETGAALVSL | -0.344 |
| HMLMTGSLQTKHGKYYVVVRIPDGLGNTKAKWINTGIPTDGNNKRKAQQRRIEILTELEENKD | -2.47 |
| HMEEITLQEQINFIKDMLLNKEKFHLTDVITKKSKIYVVSLFLALLELIRLEEINFRQTQNFSDIIISRI | 0.0172 |
| HMPQVALAIDEMKRELASPDIVKTLLATTFKGLSEVNMRQAMLDGMIQGHTIADFFKKDVYAIPFGSGYSL | 0.049 |
| HMLGARSLNEAVARNLPQILAKYQLIHIAGKNGFNPELQGRGYVQYEYVDTELKDLMALADIVVSR | -1.52 |
| HMVSVLGRRIKELRLQNSMTQMQLAKKLGYKGNSLVAGWELGKNYPSVSSIKRLSEIFDTDLMKYVG | -2.53 |
| HMKSYQKITPATEGNYLTTYREGDDIKTYEGVKAMYTPADFDASSVREITPEEHQSYQKAKEQALQEETEQ | -0.204 |
| HMNPSAFSEYSFELLQSALLKKKIDENLSNQTIARDAGVSEAFVQKVLTNNVKRPSVKNRVRMISYLGLD | -1.47 |
| HMEPREALDGLISERGETYASISRLLGRNSAYIQQFIKRGSPARLDQSDIALLALHFDVPVEMLGGKE | -0.588 |
| HMAIDWVQIKAEYISGTMSASKLAEKHGVSVYAIRKRSGKERWQELRRQNQSETANKIAEKI | -2.16 |
| HMINYSQKQLIAIQDELSKRFQALENESTKNNVTGFGVGLHYIDIDLIVNTPEKQKEFREKIMDSPAFRFN | -0.893 |
| HMLYITEIQKKIMDAFLVVANESNSGTRITMNEIANKVRMTPQAIYRKHFKSVIEISDTIRD | -0.551 |
| HMGSEISYSEFLNRVEQGQVAAVRLDGEQIFITGPTGEAYQTIQPRNTDVLPDLREAGVEIQAAPQ | 0.22 |
| HMAPLAVIFPEPWRGMIAPEKLEGLTQALSLNPRPGYQHDPTRRYGVSLDGLDVRFTIDGDTLTVVEVVT | -1.64 |
| HMTDSISLTLNGDPRPFRAGATVADLVRDIGLDPAKVAVERNLEIVPRSTLENVHLADGDVLEIVHFV | 0.0689 |
| HMNEIDDYDIQLLEYLSKGVSQEAMESVFKQAGITPNSKSTIEKRISKLKIYFKALNTTHLVSITKDLGL | -0.647 |
| HMQLTPAQHAILAYAIEHTGGKIEWFPDNIKGGARTKVLEGLFNKALITRDSTDWFVAAEGYDALGR | -0.949 |
| HMNKWMQLASEEDKKLFNEAPKEIQDSITESAKFFDIRTKADVDTFWANTGLRQMKQQAMLNESFVNEY | -0.0697 |
| HMSIYMNIYNEFKKYIIANVYKYDDKLPSVRSIALEYGINPNTVQRAFQLLEDEGYIKTISKKGVYVNYR | -0.745 |
| HMQVTDTGTIEGEIDKVLAANPDRVTEYHDGKEKILGWFVGQVMQTTKGKANPQMVNQLFLEKLK | 0.0105 |
| HMTAVNEHELMNQFKLSLGYANGDDPQTKLSTDEKNDFMRFKEWATAMTKDSKMGKDPDYLKKLAVQWTLK | 0.278 |
